Measured values: IntAct's records for PubMed 22252131

Tests used:
hakai_mouse Cbll1 [1] = biological target: hakai_mouse Cbll1 (UniProt Q9JIY2)
hakai_mouse Cbll1 [2] = biological target: hakai_mouse Cbll1 (UniProt Q9JIY2); remark: listed apart in the source
hakai_mouse Cbll1 [3] = biological target: hakai_mouse Cbll1 (UniProt Q9JIY2); remark: listed apart in the source
hakai_mouse Cbll1 [4] = biological target: hakai_mouse Cbll1 (UniProt Q9JIY2); remark: listed apart in the source

Sequence of hakai_mouse Cbll1 (Q9JIY2 whole entry): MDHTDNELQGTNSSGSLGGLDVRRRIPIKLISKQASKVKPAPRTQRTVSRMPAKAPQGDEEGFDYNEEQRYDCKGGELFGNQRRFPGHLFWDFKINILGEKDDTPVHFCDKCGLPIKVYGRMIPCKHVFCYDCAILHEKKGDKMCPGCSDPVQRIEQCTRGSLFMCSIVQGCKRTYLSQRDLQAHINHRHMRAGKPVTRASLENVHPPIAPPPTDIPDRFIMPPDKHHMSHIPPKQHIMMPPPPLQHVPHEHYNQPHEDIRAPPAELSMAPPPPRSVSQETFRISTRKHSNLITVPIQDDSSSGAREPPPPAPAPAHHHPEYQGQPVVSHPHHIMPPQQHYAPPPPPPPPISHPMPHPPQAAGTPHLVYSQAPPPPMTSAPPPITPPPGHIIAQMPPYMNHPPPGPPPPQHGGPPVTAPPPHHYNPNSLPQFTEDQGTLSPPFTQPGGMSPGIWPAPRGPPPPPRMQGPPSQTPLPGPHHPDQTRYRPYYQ
Sequence of Src substrate cortactin (Mus musculus), Q60598 D480A (Q60598 whole entry D480A): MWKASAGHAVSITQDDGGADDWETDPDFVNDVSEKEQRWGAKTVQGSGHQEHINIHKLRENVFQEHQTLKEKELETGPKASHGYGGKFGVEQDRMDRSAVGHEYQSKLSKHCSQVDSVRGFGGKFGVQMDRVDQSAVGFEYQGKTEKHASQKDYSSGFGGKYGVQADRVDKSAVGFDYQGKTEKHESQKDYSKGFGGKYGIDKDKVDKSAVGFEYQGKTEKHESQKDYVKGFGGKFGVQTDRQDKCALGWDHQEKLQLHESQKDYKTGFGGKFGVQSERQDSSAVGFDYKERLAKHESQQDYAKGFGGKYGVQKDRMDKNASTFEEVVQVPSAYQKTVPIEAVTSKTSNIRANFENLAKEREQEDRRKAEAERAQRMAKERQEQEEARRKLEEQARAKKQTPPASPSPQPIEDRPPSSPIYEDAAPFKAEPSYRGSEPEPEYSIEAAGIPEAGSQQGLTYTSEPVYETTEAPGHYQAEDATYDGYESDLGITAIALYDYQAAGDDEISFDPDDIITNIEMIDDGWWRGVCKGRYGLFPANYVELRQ
Sequence of Src substrate cortactin (Mus musculus), Q60598 E478A (Q60598 whole entry E478A): as the sequence (Q60598 whole entry D480A) above, with E478A, A480D counted along it
Sequence of Src substrate cortactin (Mus musculus), Q60598 Y482F (Q60598 whole entry Y482F): as the sequence (Q60598 whole entry D480A) above, with A480D, Y482F counted along it

## Src substrate cortactin (Mus musculus), Q60598 D480A
hakai_mouse Cbll1 [1]
  effect of a mutation on the interaction: decreasing interaction

## Src substrate cortactin (Mus musculus), Q60598 E478A
hakai_mouse Cbll1 [2]
  effect of a mutation on the interaction: decreasing interaction

## Src substrate cortactin (Mus musculus), Q60598 E486A
hakai_mouse Cbll1 [3]
  effect of a mutation on the interaction: disrupting interaction

## Src substrate cortactin (Mus musculus), Q60598 Y482F
hakai_mouse Cbll1 [4]
  effect of a mutation on the interaction: disrupting interaction
